The results in this text go back to publication PMC7841161, “APE1 distinguishes DNA substrates in exonucleolytic cleavage by induced space-filling”.

The target of data set [1] is mAPE1 in blunt-ended crystal (mouse, UniProt P28352 40-317). Description: X-ray crystallography; product complex; EMSA: 50 mM EDTA, 20 mM Tris-HCl pH 7.0, 120 mM NaCl, on ice 10 min + 10 min, FAM-labeled substrates, TBE native gel. Conditions: protein: recombinant; chain copies: 2; 2 copies of one strand, 1-nt 5' overhangs; central A-A from self-pairing. (In general: Mobility shift assays separate free from complexed probe on a gel.)

Data set [2] addresses T1, mAPE1 full-length (mouse, UniProt P28352 1-317). In words: EMSA; 50 mM EDTA; complex visible at 1 uM mAPE1; EMSA: 50 mM EDTA, 20 mM Tris-HCl pH 7.0, 120 mM NaCl, on ice 10 min + 10 min, FAM-labeled substrates, TBE native gel. Conditions: protein: recombinant, label: FAM.
In data set [3] the target is mAPE1 in recessed crystal (mouse, UniProt P28352 31-317). In words: X-ray crystallography; product complex; EMSA: 50 mM EDTA, 20 mM Tris-HCl pH 7.0, 120 mM NaCl, on ice 10 min + 10 min, FAM-labeled substrates, TBE native gel. Conditions: protein: recombinant; 2 copies of one strand, 2-nt 5' overhangs; central A-A from self-pairing.
Data set [4] concerns the target T1, mAPE1 full-length. Description: EMSA; 50 mM EDTA; similar to blunt; EMSA: 50 mM EDTA, 20 mM Tris-HCl pH 7.0, 120 mM NaCl, on ice 10 min + 10 min, FAM-labeled substrates, TBE native gel. Conditions: protein: recombinant, label: FAM.
Data set [5] deals with T1, mAPE1 full-length. Description: EMSA; 50 mM EDTA; weak low-MW complex seen; EMSA: 50 mM EDTA, 20 mM Tris-HCl pH 7.0, 120 mM NaCl, on ice 10 min + 10 min, FAM-labeled substrates, TBE native gel. Conditions: protein: recombinant; label: FAM; 3 strands, nick between strands 1 and 2.
The target of data set [6] is T1, mAPE1 full-length. In words: EMSA; 50 mM EDTA; extra low-MW complex at 0.5 uM, higher affinity than ends; EMSA: 50 mM EDTA, 20 mM Tris-HCl pH 7.0, 120 mM NaCl, on ice 10 min + 10 min, FAM-labeled substrates, TBE native gel. Conditions: protein: recombinant; label: FAM; 3 strands, 1-nt gap between strands 1 and 2.
In data set [7] the target is T1, mAPE1 full-length. In words: EMSA; 50 mM EDTA; mostly complexed at 5 uM, stronger than blunt; EMSA: 50 mM EDTA, 20 mM Tris-HCl pH 7.0, 120 mM NaCl, on ice 10 min + 10 min, FAM-labeled substrates, TBE native gel. Conditions: protein: recombinant; label: FAM; 5' overhang 20 nt on strand 2.

T1 sequence (P28352 whole entry): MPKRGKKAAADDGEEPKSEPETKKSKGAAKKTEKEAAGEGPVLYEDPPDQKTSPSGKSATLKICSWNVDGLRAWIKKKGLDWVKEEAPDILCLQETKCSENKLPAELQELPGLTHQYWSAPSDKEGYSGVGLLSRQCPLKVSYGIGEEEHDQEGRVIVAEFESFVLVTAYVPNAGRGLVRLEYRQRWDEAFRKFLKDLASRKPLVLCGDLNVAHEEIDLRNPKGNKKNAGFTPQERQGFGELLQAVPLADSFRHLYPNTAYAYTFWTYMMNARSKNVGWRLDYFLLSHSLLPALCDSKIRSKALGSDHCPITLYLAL
mAPE1 in blunt-ended crystal, sequence (P28352 40-317): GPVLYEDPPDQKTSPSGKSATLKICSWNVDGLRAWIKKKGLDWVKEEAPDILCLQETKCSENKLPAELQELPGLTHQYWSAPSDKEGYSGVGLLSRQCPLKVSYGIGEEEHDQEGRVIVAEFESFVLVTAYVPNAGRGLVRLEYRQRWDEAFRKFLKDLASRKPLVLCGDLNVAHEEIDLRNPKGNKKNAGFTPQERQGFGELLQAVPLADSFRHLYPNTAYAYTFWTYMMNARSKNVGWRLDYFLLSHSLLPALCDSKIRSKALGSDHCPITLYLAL
mAPE1 in recessed crystal, sequence (P28352 31-317): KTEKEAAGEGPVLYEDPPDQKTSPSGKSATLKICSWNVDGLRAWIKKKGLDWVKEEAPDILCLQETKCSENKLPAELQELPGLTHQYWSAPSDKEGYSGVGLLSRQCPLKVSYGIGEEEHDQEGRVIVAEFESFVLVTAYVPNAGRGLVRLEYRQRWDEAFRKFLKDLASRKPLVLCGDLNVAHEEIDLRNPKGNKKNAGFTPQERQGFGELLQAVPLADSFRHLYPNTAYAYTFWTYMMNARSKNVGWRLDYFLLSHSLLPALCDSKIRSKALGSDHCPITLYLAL

B1: blunt-ended dsDNA product (crystal) (dsDNA)
DNA 1: CGTAATAC
DNA 2: CGTAATAC
B1: in data set [1], the binding result is listed as “binds”.

B2: recessed dsDNA 5 nt 5' overhang (dsDNA)
DNA 1: ACTGGACAAATACTCCGAGG
DNA 2: ATCACCCTCGGAGTATTTGTCCAGT
Turning to B2, the binding result in data set [2] (5' overhang 5 nt on strand 2) was “binds”.

B3: blunt-ended dsDNA 20 bp (dsDNA)
DNA 1: ACTGGACAAATACTCCGAGG
DNA 2: CCTCGGAGTATTTGTCCAGT
On to B3, for which the binding result in data set [2] (blunt) is “binds”.

B4: recessed dsDNA product (crystal) (dsDNA)
DNA 1: GCGTAATAC
DNA 2: GCGTAATAC
Regarding B4, in data set [3], the binding result was “binds”.

B5: dsDNA 20 mer 1 nt mismatch (dsDNA)
DNA 1: ACTGGACAAATACTCCGAGG
DNA 2: ACTCGGAGTATTTGTCCAGT
B5: the binding result in data set [4] (1 nt mismatch at 3' end of strand 1) is “binds”.

B6: dsDNA 20 mer 2 nt mismatch (dsDNA)
DNA 1: ACTGGACAAATACTCCGAGG
DNA 2: AATCGGAGTATTTGTCCAGT
Consider B6, for which the binding result in data set [4] (2 nt mismatch at 3' end of strand 1) is recorded as “binds”.

B7: nicked dsDNA 40 mer 5'-OH (dsDNA)
DNA 1: ACTGGACAAATACTCCGAGG
DNA 2: GTGATTAGTGAAGCGTGCTC
DNA 3: GAGCACGCTTCACTAATCACCCTCGGAGTATTTGTCCAGT
modifications: 5'-OH at nick
With B7, the binding result in data set [5] is listed as “binds”.

B8: 1-nt gapped dsDNA 40 mer, matched (dsDNA)
DNA 1: ACTGGACAAATACTCCGAGG
DNA 2: TGATTAGTGAAGCGTGCTC
DNA 3: B7 DNA 3
modifications: 5'-OH or 5'-phosphate at gap margin (not stated which for EMSA)
Take B8: in data set [6], the binding result is recorded as “binds”.

B9: recessed dsDNA 20 nt 5' overhang (dsDNA)
DNA 1: ACTGGACAAATACTCCGAGG
DNA 2: B7 DNA 3
Regarding B9, the binding result in data set [7] is “binds”.
